Experiments:
[1] = biological target: thrombin (UniProt P00734;P00734 328-363;364-622); assay: strand-displacement release of rhodamine 6G from gated NMOFs (fluorescence); thrombin 0.25-1 uM; 10 mM KCl, 10 mM MgCl2; competes with anchor strand (1); 10 mM HEPES pH 7.4, 20 mM NaCl, 10 mM KCl, 10 mM MgCl2; 30 min; temperature not stated
[2] = biological target: vascular endothelial growth factor 165 (VEGF) (human, UniProt P15692-4 27-191); assay: strand-displacement release of rhodamine 6G and Apixaban from gated NMOFs (fluorescence); 1 uM protein; background release only; 10 mM HEPES pH 7.4, 20 mM NaCl, 10 mM KCl, 10 mM MgCl2; 30 min; temperature not stated; conditions: protein: commercial; chain copies: 2; label: none on DNA; read-out is released rhodamine 6G or Apixaban fluorescence; 11 bp duplex, 5' overhang 8 nt on aptamer strand
Chain of vascular endothelial growth factor 165 (VEGF) (P15692 other isoform, or with tags, fused parts or gaps): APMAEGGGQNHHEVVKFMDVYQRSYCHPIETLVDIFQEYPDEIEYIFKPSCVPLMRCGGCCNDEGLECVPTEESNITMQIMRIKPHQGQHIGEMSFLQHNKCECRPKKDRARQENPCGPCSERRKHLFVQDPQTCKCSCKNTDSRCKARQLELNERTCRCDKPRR

B1: thrombin aptamer (2) hybridized to anchor (1) on UiO-68 NMOFs (mixed)
DNA: GGTTGGTGTGGTTGGTTTT
?: AAAACCAACCA
modifications: strand 2 (anchor): 5'-NH2-(CH2)6, DBCO-modified, clicked to azide-functionalized UiO-68 NMOF
binding result [1]: binds | binding result [2]: no binding

From article PMC6929137, “Thrombin Aptamer-Modified Metal–Organic Framework Nanoparticles: Functional Nanostructures for Sensing Thrombin and the Triggered Controlled Release of Anti-Blood Clotting Drugs”
